The values that follow come from the DeepSol protein solubility set.

This data set is described as follows: soluble on expression in E. coli; label from the status in PepcDB or PDB records.
Consider “SNQKIASIEQLSNNEGIISALAFDQRGALKRMMAKHQTEEPTVAQIEQLKVLVAEELTQYASSILLDPEYGLPASDARNKDCGLLLAYEKTGYDVNAKGRLPDCLVEWSAKRLKEQGANAVKFLLYYDVDDAEEINIQKKAYIERIGSECVAEDIPFFLEVLTYDDNIPDNGSVEFAKVKPRKVNEAMKLFSEPRFNVDVLKVEVPVNMKYVEGFAEGEVVYTKEEAAQHFKDQDAATHLPYIYLSAGVSAELFQETLKFAHEAGAKFNGVLCGRATWSGAVQVYIEQGEDAAREWLRTTGFKNIDDLNKVLKDTATSWKQ”, for which the “soluble on expression in E. coli” value was “not soluble”. On to “MKLPYSITVTYDHRTSPHIPFSSHIGKQNSFFSFLSRKKSMYHHITFCSVPATDGRARGQRPTGHFHLFFVVNRLLPRTRSTTKPSCSFAQPVTPRTREGAGVRGHRRRRRGSLSLIPWKTSNDKQKDDKRSLFCYMREIIAVGNFSKYMLLEHHHHHH”, for which the “soluble on expression in E. coli” value is reported as “not soluble”. On to “MKTALLLKTKSQPFDPYVEAFEKYGRDTAFIPVLRHKRVHEEQLRDKLKNVRKTYCGLIVTSQRVSETLDEALKQEDETERQKILMETPIFTVGPATDDSIRRLGFQQTHGKDCGRGEVLADLIEEWYTTTKQHKPLLFLVGEKHRDIIQRKLGDDRVDSLIVYATQELENTETQIKDTIRKHPTIDWIVAFSPTSICSLLNTFELKIATIGPTTGDYLKKLGTQPNVVSPAPNPESLASSIVAFDEENSS”, for which the “soluble on expression in E. coli” value is “soluble”. To “MQLISDRTSGAIHEIFGRDKALIGMIHCPPFPGAPRYRGETMDTIVDACLRDAERLVAGGLHGLVVENHGDIPFSKPDDIGPETAACLGVVTDRIRRAFGVPLGINVLANAPLPALAAAVAGGALFIRVNQWANAYVANEGFMEGRAAEAMRYRSLLRAEHVRIFADSHVKHGSHAIVADRSIPELTRDLAFFDADCIIATGQRTGDSATIAEIEEIGGATHLPLLVGSGVTEANVVEILKRTNGVIVASSLKEGGVWWNPVDPERVARFVAAAREGLDGLEHHHHHH” belongs “not soluble”; to “MWLYYLQVVMDMRVYVEGYGCVLNTADTEIIKNSLKKHGFEVVNNLEEADIAIINTCVVRLETENRMIYRINELKNLGKEVVVAGCLPKALKNKVKGFLHIYPREAHKAGEILKNYVEKHYRMPYIEEDINKTLYKKLDYLKPSLITPLPICEGCIGNCSYCIVKIARGGLISYPREKIVNKAKELINKGAKCLLITAQDTACYGFDIGDNLANLLNELTQIKGEFIMRVGMMHAKNAELILDELIEVYQNEKVGKFLHLPLQSGDDEILKRMKRGYTVDEFKDIVNEFRRKIKNLCFTTDIIVGFPGETEEQFQNTLEVLRELKPDYIHGAKYSQRKGTEAAKMKQIDTKIRKRRSEILDKLRRELSYLNNKKYIGKAMKVLVLDEGKGYTDNFKVVKFEGGEVGEFRKVKITDAKTFGLKGELILLEHHHHHH”, “soluble”. For the sequence “MSDFLKLVGENIRFLRKKRGLTQEELAEQINLQQAYIGGVERGERNISMLTLQKIAVGLEVSPDEVLNFSNVNLIDNPQREESLSIITSLLHQKNVNELQFILKFLYNFSEFVESNSNK”, the “soluble on expression in E. coli” value is on record as “not soluble”. The value for “MNTDAIESMVRDVLSRMNSLQGEAPAAAPAAGGASRSARVSDYPLANKHPEWVKTATNKTLDDFTLENVLSNKVTAQDMRITPETLRLQASIAKDAGRDRLAMNFERAAELTAVPDDRILEIYNALRPYRSTKEELLAIADDLESRYQAKICAAFVREAATLYVERKKLKGDD” was “soluble”; that for “MADRPIEIVDRQNVLTVHLPGTYTVMYDARYCYVSYIPVSETVAEFTLTGFKYPLTNCHISRGSTLCISNELIQSSGTFSFSEGILMMIRSSDSLEHHHHHH” was “not soluble”.

Turning to “MSMDISDFYQTFFDEADELLADMEQHLLDLVPESPDAEQLNAIFRAAHSIKGGAGTFGFTILQETTHLMENLLDEARRGEMQLNTDIINLFLETKDIMQEQLDAYKNSEEPDAASFEYICNALRQLALEAKGETTPAVRSHHHHHH”, the “soluble on expression in E. coli” value is “soluble”. On to “MSLTNLLIRNVRPSADAALDILIEGDRIARIGPSLDAPAGCAIEDGAGALALPGLVEGHTHLDKTHWGMPWYRNQVGPRLVDRIENERHYRATSGHDAGAASLALARAFLAAGTTRIRTHVDIDTEAGLRHLHGVLATRETLRGEVDIQIVAFPQSGVLKRPGTDVLLSDALAAGADLLGGLDPCAIEGDPVEAVDVLFAIAERHGRGLDLHLHERGSMGAYSLDLILQRTATHGMQGKVTISHGFCLGDIGERERDALLARMAELGVGLVTTAPAAVPVPPVAACRAAGVTVIGGNDGVRDTWTPYGSPDMLERAMLIGMRNDFRRDDALEVALDCVTHGAARGCGFGDYGLQPGSRADVVLVDALTFAEAVVARPVRRLVVSSGKIVARNGALVEGHHHHHH”, for which the “soluble on expression in E. coli” value is listed as “soluble”. With “MGSDKIHHHHHHMWFKNLKIYRLSAPWALNGDQLEECLARFAYQGGNNLEMQSLGWISPRENGLLAHTLNGQILLTLRAEKKLLPTTVVNQVAKARAQEIEEQQGYKPGRKQMKEIKERVTDELLPKAFSIYRDTRVWIDTVNHWLVIDAAASAKADEVIGLLVKTIDPLPLDNLYVEQSPAAAMTGWLAADEAPANFSIDQDTELRASGESRAAIRYVKHSIDVDDVRRHIQSGKQCTRLAMTWADRVSFVLTESLDVKRVAPLDVLKENPDAATQNDDEKFDSDMTLMTGEVAKLLAELVDSLGGEKRV”, the “soluble on expression in E. coli” value was “not soluble”. The value for “MKSATSAQRPYQEVGAMIRDLIIKTPYNPGERLPPEREIAEMLDVTRTVVREALIMLEIKGLVEVRRGAGIYVLDNSGSQNTDSPDANVCNDAGPFELLQARQLLESNIAEFAALQATREDIVKMRQALQLEERELASSAPGSSESGDMQFHLAIAEATHNSMLVELFRQSWQWRENNPMWIQLHSHLDDSLYRKEWLGDHKQILAALIKKDARAAKLAMWQHLENVKQRLLEFSNVDDIYFDGYLFDSWPLDKVDA” was “soluble”; that for “MAHHHHHHMPAVKWSSPVVRNELMSLTRLPAEMQRAAAAAVAAHKNAYSPYSNFSVGAALLHDDGSVTAGCNYENCTLQSCCAERCAIVRANVEGHRRANAVAVYGRSYGAATPTNPPPVDALCPPCGLCRQLLVEVADLSQNFEEFMVVLVALDAQRAKVVRLADLVPAKFGPADIGMDVTQLGCHPSA” was “not soluble”; that for “MGSDKIHHHHHHMDAPALPARWKVSAPELIAETFSSRIWKVVRDDGSPAVVKALKPFDDVADELRGEHFLAWRRGEGAVRLLGRDGHSMLLEYAGETLLTQVLDEQGDNAATAIAAELMTKLFSPSQHPYPPELQPLTERYTSLFRKAATDRGAGHASIYVEAAAIAERLLDNPHDIRPLHGDLHHDNILHGPRGWLVIDPKGVLGNPGFDAANMFYNPLDRDDLCLDPERIAHMAEVFAKTLGESPAAILDHAIAYGCLSAAWHHEDDNAVEENRELSIAKAIRAMRANF” was “not soluble”.

On to “MRKQFLIAHRGYSTIAPENTHLAFAAAQLFGFDGLWMEVQLTKDKQIVVTNLDNYKVGNKTHKLSDINLVNLKKINLAKQFKVNVQEQTILTLKEVLMEFLTPFRFLLLFIKGEEEQQNQVLVEQLAQLLEGFELAKEKLILLSSHFSTIKYLNEKLKSFKTSFVFNSKKQLVHLTKDEITQNCRFLAPNDSFYHKNCAELQSYGLPIILWVIKGLLRYQFYENDRFVKFQIAAQLY”, for which the “soluble on expression in E. coli” value was “soluble”. On to “MGSDKIHHHHHHMGILSDKDIAYLKDLFGKELKRKVKIVFFKTEDKTRCQYCEITEQVLEELVSVDPKLELEIHDFDSDKEAVEKYQVEMVPATILLPEDGKDYGIRFYGVPSGHEFGTLIQDIITVSEGKPQLSEESIQKLQSLEEPIRISVFVTPTCPYCPRAVLMAHNMAMASDKIIGEMIEANEYWELSEKFGVSSVPHIVVNRDPSKFFVGAYPEKEFINEVLRLAKG”, for which the “soluble on expression in E. coli” value is given as “not soluble”.

As to “MSLRSTLAGTVRTQQGEIYLNGDADWSQIENWRARVTAKGSKVRITVPPMVRMDVSPDVVFEATPNLFTLDGRVDVPWARIVVHDLPESAVGVSSDVVMLNDNLQPEEPKTASIPINSNLIVHVGNNVRIDAFGLKARLTGDLNVVQDKQGLGLNGQINIPEGRFHAYGQDLIVRKGELLFSGPPDQPYLNIEAIRNPDATEDDVIAGVRVTGLADEPKAEIFSDPAMSQQAALSYLLRGQGLESDQSDSAAMTSMLIGLGVAQSGQIVGKIGETFGVSNLALDTQGVGDSSQVVVSGYVLPGLQVKYGVGIFDSIATLTLRYRLMPKLYLEAVSGVDQALDLLYQFEFEGHHHHHH”, the “soluble on expression in E. coli” value is recorded as “soluble”. The value for “MRKMKSLYLAIQQHESRRWSPVAKVTKNGGVYRLVYTKGAWEVPGFSGFARMEDLYQEYRSAEIFPILKNRTLPRSRPEYQNYILWLGLSPEEHDELDELARSGGIRATDQIELIPAPERKEDGSFEAFFFVRGISYIPGTADIDLKIGDRLFVMKDFQNEQDSAALLLRTGDPVSVVGYAPRYYSHDLSRLAELCPPQDLLVTVERLNNNAPAAYKVLCKVVAPWPAGFDFFGSHVFDEVPKAPVSLEHHHHHH” was “not soluble”.

Regarding “MGLRDRFSNYLFKKAEKRGYLDNVLGKSIRYSGVYVTDSNILQSSDVYELLQDISNQMVLADIVVEDEFGNEIKDDIALQILRNPNNYLTQSEFIKLMTNTYLLEGETFPILNGAQIHLASNVFTELDDNLVEHFNIGGHEIPPCMIRHVKNIGADHLRGKGILDLGRDTLEGVMSAEKTLTDKYKKGGLLTFLLNLDAHINPQNGAQSKLINAILDQLESIDEARSVKMIPLGKGYSIDTLKSPLDDEKTLAYLNVYKKDLGKFLGINVDTYTELIKEDIEKAMMYIHNKAVRPIMKNFEDHLSLLFYAQNSGKRIKFKINILDFVTYSNKTNIGYNLVRTAITSPDNVADMLGFPKQNTKESQAIYISNDVTEIGKKEATDGSLGGGEENEN”, the “soluble on expression in E. coli” value is “not soluble”. Consider “MMKAKVIDAVSFSYILRTVGDFLSEANFIVTKEGIRVSGIDPSRVVFLDIFLPSSYFEGFEVSQEKEIIGFKLEDVNDILKRVLKDDTLILSSNESKLTLTFDGEFTRSFELPLIQVESTSPPSVNLEFPFKAQLLTITFADIIDELSDLGEVLNIHSKENKLYFEVIGDLSTAKVELSTDNGTLLEASGADVSSSYGMEYVANTTKMRRASDSMELYFGSQIPLKLRFKLPQEGYGDFYIAPRAD”, for which the “soluble on expression in E. coli” value is on record as “soluble”. In the case of “VDEPESMVNLAFVKNDSYEKGPDSVVVHVYVKEICRDTSRVLFREQDFTLIFQTRDGNFLRLHPGCGPHTTFRWQVKLRNLIEPEQCTFCFTASRIDICLRKRQSQRWGGLEAPAARVGGA”, the “soluble on expression in E. coli” value is “soluble”.

In the case of “MNVPGAAPFLTAQSEEEATEVLESIHPDPEKSGARYIMSDERMAVDIFMAMPEWTLDTEGYMQPYWTGDGYQYLPSKRYFDSMESRLHFLDGNGLKQYRLVYETWAYQTQEAGYKQVYNFLYGSSIPEVDSGYVKIFEYVKGAKITGTVSPNETVNINTTILTGQGRTFELEHHHHHH”, the “soluble on expression in E. coli” value is on record as “soluble”.
